According to patent publication US20210122826A1 (MIT, published 2021):
Changes are numbered by the printed parent chain.

T1: Human CD94 (human, UniProt Q13241 1-179)
T1 construct: also called hCD94
T1 sequence: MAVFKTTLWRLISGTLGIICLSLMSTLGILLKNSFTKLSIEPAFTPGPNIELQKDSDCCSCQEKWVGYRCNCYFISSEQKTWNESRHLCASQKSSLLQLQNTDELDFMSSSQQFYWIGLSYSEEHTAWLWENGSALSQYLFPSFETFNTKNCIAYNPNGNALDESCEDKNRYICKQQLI

T2: Human Clec7A (human, UniProt Q9BXN2 1-247)
T2 construct: also called hClec7A
T2 sequence: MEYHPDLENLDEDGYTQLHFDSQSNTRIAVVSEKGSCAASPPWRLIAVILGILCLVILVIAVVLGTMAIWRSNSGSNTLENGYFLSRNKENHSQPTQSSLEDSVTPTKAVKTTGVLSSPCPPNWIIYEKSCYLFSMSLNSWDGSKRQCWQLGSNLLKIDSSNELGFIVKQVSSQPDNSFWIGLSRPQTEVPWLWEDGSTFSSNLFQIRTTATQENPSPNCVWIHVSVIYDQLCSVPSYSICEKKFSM

T3: cynomolgus CD161 (cynomolgus)
T3 construct: UniProt A0A2K5WYI1; also called cynoCD161
T3 chain: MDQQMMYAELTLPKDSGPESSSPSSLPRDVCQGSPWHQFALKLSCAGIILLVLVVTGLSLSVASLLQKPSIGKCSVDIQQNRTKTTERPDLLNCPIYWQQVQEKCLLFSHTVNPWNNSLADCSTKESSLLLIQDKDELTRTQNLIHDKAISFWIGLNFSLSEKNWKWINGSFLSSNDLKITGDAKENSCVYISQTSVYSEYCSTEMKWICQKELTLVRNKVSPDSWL

T4: Human CD209 (human, UniProt Q9NNX6 1-404)
T4 construct: also called hCD209
T4 sequence: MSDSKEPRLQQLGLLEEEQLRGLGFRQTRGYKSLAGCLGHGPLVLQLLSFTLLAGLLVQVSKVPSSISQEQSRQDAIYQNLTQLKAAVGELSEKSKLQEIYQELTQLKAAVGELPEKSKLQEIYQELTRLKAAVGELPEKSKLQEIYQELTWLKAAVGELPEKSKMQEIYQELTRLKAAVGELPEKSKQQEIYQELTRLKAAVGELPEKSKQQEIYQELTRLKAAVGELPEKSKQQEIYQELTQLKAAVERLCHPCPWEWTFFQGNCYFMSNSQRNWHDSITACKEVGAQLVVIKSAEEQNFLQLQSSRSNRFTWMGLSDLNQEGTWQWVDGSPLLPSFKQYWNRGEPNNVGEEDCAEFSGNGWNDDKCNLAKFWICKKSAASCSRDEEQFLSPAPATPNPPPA

T5: Human Clec12B (human, UniProt Q2HXU8 1-276)
T5 construct: also called hClec12B
T5 sequence: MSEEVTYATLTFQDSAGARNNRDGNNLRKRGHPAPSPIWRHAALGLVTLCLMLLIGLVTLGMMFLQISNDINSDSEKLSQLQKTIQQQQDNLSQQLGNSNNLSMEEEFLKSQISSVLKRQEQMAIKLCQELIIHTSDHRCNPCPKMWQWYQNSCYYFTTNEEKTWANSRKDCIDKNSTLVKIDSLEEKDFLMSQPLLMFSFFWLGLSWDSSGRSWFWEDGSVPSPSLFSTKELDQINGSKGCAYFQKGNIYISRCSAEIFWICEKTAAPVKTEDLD

T6: Human KLRF1 (human, UniProt Q9NZS2 1-231)
T6 construct: also called hKLRF1
T6 sequence: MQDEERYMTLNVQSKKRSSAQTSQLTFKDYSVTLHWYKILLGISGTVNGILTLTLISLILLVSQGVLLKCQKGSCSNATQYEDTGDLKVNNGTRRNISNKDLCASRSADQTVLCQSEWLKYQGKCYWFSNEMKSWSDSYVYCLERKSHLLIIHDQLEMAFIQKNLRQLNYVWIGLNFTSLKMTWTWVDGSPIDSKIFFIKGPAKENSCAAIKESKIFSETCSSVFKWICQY

B1: anti-CD161 KW17 (antibody, V domains shown)
VH: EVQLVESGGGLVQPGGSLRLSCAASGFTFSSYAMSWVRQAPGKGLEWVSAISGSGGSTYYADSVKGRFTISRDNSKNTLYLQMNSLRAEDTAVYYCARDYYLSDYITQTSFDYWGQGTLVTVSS
VL: QSVLTQPPSVSGAPGQRVTISCTGSSSNIGAGYDVHWYQQLPGTAPKLLIYGNSNRPSGVPDRFSGSKSGTSASLAITGLQAEDEADYYCQSYDSSHTVFGGGTQLTVL
notes: Human, lambda light chain; scFv-Fc or full IgG not clear; also called KW17-Fc
B2: KW17.3.4 (antibody, V domains shown)
VH: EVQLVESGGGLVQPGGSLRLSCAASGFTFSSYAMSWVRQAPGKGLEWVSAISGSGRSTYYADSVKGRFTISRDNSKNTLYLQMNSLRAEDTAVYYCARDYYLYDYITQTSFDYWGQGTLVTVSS
VL: B1 VL with K68Q, D94N, S96G
B3: KW1.2.1 (antibody, V domains shown)
VH: EVQLVESGGGLVQPGGSLRLSCAASGSTFSSYAMSWVRQAPGKGLEWVSTISGSGGSTYYADSVKGRFTISRDNSRNTLYLQMNSLRAEDTAVYYCARGGLIPSGFDYWGQGTLVTVSS
VL: DIQMTQSPSSPSASVGDRVTITCRASQSISSYLNWYQQKPGKAPKLLIYAASSLLSGVPSRFSGSGSGTDFTLTISSLQPEDFATYYCQQTYSTPLTFGQGTKVEIK
B4: KM12.2.3 (antibody, human IgG1, V domains shown)
VH: EVQLVESGGGLVQPGGSLRLSCAASGFTFSSYAMSWIRQAPGKGLEWVSAISGSGGSIYYADSVKGRFTISRDNSKNTLYLQMNSLRAEDTAVYYCARGYSDSYFYGPYYTFDYWGQGTLVTVSS
VL: B3 VL with P11L, S28G, L55Q, P59S, T91S, S93N
B5: KW1.3.12 (antibody, human IgG1, V domains shown)
VH: B3 VH with S27F
VL: B3 VL with P11L, T94A
B6: KW9.3.3 (antibody, V domains shown)
VH: EVQLVESGGGLVQPGGSLRLSCAASGFTFSSYAMSWVRQAPGKGLEWVSAISGSGGRTYYADSVKGRFTISRDNSKNTLYLQMNSLRAEDTAMYYCARGPGYMYLYGDSFFEYWGQGTLVTVSS
VL: B3 VL with T5A, P11L, S28G, L55Q, S67Y, T91S
B7: KW7.2.2 (antibody, V domains shown)
VH: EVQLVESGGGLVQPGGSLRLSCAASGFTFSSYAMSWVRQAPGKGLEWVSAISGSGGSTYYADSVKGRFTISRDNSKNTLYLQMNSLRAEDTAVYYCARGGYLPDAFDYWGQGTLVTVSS
VL: B3 VL with P11L, K45R, L46F, L55Q
B8: KW7.3.7 (antibody, V domains shown)
VH: B3 VH with S27F, T50A, I51T, V64A, R76K, L101Y, I102L, S104D, G105A, Q111R
VL: B3 VL with P11L, R24W, K39E, L55Q
B9: KM12.4.7 (antibody, V domains shown)
VH: B4 VH with S21P, N84D
VL: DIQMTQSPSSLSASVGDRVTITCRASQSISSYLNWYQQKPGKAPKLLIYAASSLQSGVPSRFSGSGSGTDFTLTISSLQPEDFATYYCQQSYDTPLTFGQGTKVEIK

Legend:
[1] = molecular target: T1, Human CD94; assay: flow, Jurkat
[2] = molecular target: T2, Human Clec7A; assay: flow, Jurkat
[3] = molecular target: T3, cynomolgus CD161; assay: flow, Jurkat
[4] = molecular target: T4, Human CD209; assay: flow, Jurkat, 100 nM Ab
[5] = molecular target: T5, Human Clec12B; assay: flow, Jurkat, 100 nM Ab
[6] = molecular target: T6, Human KLRF1; assay: flow, Jurkat, 100 nM Ab
[7] = molecular target: T7, Human Clec9A (human, UniProt Q6UXN8 1-241); assay: flow, Jurkat, 100 nM Ab
T7 construct: also called hClec9A

[8] = molecular target: T3, cynomolgus CD161; assay: flow, Jurkat, 100 nM Ab
[9] = molecular target: T3, cynomolgus CD161; assay: flow, Jurkat, Ab titration
Protocol: (§1) To measure binding, Jurkat cells expressing hCD161 or cynoCD161 were incubated with 0.01 nM to either 0.1 μM or 0.3 μM anti-CD161 antibodies as listed in Table 12. Jurkat cells expressing cynoCD161 were prepared using the methods described in Example 7. Volumes were sufficiently large such that ligand was depleted less than 10%. Following a three-hour incubation on ice, cells were washed and stained with fluorescent anti-human secondary antibody. The cells were washed, and labeling of antibody binding was assessed by flow cytometry to determine the MFI as a function of anti-CD161 antibody concentration. Raw MFI (top panel) and MFI normalized to the maximum value in each dataset (bottom panel) are shown for binding to hCD161 (FIG. 7C) and to cynoCD161 (FIG. 7D).

[10] = molecular target: T8, human CD161 (human, UniProt Q12918 1-225); assay: flow, Jurkat, Ab titration
T8 construct: UniProt Q12918; also called hCD161; KLRB1
Protocol: as §1

[11] = molecular target: T3, cynomolgus CD161; assay: flow, Jurkat, Ab titration
[12] = molecular target: T8, human CD161; assay: flow, Jurkat, Ab titration; remark: listed apart in the source
[13] = molecular target: T8, human CD161; assay: flow cytometry titration of soluble IgG on Jurkat hCD161+ cells, fluorescent secondary antibody, MFI against Ab concentration (log [M])
Protocol: as §1

[14] = molecular target: T3, cynomolgus CD161; assay: flow cytometry titration of soluble IgG on Jurkat cynoCD161+ cells, fluorescent secondary antibody, MFI against concentration (log [M])
Protocol: as §1

T7 sequence (Q6UXN8 whole entry): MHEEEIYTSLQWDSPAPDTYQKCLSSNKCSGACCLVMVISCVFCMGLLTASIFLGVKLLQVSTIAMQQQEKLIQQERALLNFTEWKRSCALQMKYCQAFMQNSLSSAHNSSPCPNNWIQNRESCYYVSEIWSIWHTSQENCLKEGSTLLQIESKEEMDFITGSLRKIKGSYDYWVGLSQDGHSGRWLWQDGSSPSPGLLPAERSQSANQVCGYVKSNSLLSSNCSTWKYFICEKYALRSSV

| binding result [1] | binding result [2] | binding result [3] | MFI normalized to WT [4] | MFI normalized to WT [5] | MFI normalized to WT [6] | MFI normalized to WT [7] | MFI normalized to WT [8] | Kd [9] [nM] | Kd [10] [nM] | fold binding vs HP-3G10 [11] [fold] | fold binding vs HP-3G10 [12] [fold] | EC50 (read off the curve) [13] [pM] | EC50 (read off the curve) [14] [pM] | Binder |
| --- | --- | --- | --- | --- | --- | --- | --- | --- | --- | --- | --- | --- | --- | --- |
| no binding (tested: 100 nM) | no binding (tested: 100 nM) | no binding (tested: 100 nM) | 0.92 | 1.04 | 0.89 | 1.07 | 0.98 |  |  |  |  |  |  | B1 |
| no binding (tested: 100 nM) | no binding (tested: 100 nM) | no binding (tested: 100 nM) |  |  |  |  |  |  |  |  |  |  |  | B2 |
| no binding (tested: 100 nM) | no binding (tested: 100 nM) |  |  |  |  |  |  | 0.247 | 0.233 | ~10 | ~10 | ~200 |  | B3 |
| no binding (tested: 100 nM) | no binding (tested: 100 nM) |  |  |  |  |  |  |  |  |  |  |  |  | B4 |
| no binding (tested: 100 nM) | no binding (tested: 100 nM) |  |  |  |  |  |  | 0.274 | 0.249 | ~10 | ~10 | ~400 | ~300 | B5 |
| no binding (tested: 100 nM) | no binding (tested: 100 nM) | no binding (tested: 100 nM) |  |  |  |  |  |  |  |  |  |  |  | B6 |
| no binding (tested: 100 nM) | no binding (tested: 100 nM) |  |  |  |  |  |  | 0.24 | 0.207 | ~10 | ~10 | ~200 |  | B7 |
| no binding (tested: 100 nM) | no binding (tested: 100 nM) |  |  |  |  |  |  |  |  |  |  |  |  | B8 |
| no binding (tested: 100 nM) | no binding (tested: 100 nM) |  |  |  |  |  |  | 0.225 | 0.0925 | ~10 | ~10 | ~90 | ~200 | B9 |
